Test system: MS2 coat protein
Assay: apparent KD of MS2 coat protein; designed switch direction (-1 OFF switch, 1 ON switch): -1; higher = weaker reporter binding
Outline: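 For each design, the apparent KD is the median over clusters of curves fitted to normalised cluster fluorescence. Clusters held RNA switches with common flanks, transcribed on Illumina chips by stalled E. coli RNA polymerase. These were titrated with SNAP-549-labelled MS2 coat protein, doubling from 0.7 or 1.5 nM to 3 µM, without input, with 200 uM small-molecule ligand, or with an oligonucleotide input.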

[1] = Eterna round: R95, input ligand: FMN 200 uM
[2] = Eterna round: R95, input ligand: microRNA oligo, concentration not stated
[3] = Eterna round: R95, input ligand: none
[4] = input ligand: microRNA oligo, concentration not stated

| Sequence | apparent KD of MS2 coat protein [1] | apparent KD of MS2 coat protein [2] | apparent KD of MS2 coat protein [3] | apparent KD of MS2 coat protein (input ligand: FMN 200 uM) | apparent KD of MS2 coat protein (input ligand: none) | apparent KD of MS2 coat protein [4] |
| --- | --- | --- | --- | --- | --- | --- |
| AGUACUAACACGAUAGUGUUAGUACAAUAAGCUUGUGAAACAUGAGGAUCACCCAUGUCCUCAUAAGCUCGUCUUAU [salish99_TOv2_r3_030] (puzzle: Sensor v3, turn-off variant 2) | 14.5 nM | 993 nM | 14.6 nM |  |  |  |
| AGCAGACGAGGAUAUAGAUUUAGAUACAUGAGGAUCACCCAUGUAUACAUGUAUUUAGAUUUAGAAGGCGUCUGCU [E5/14-A1] (Eterna round: R97, puzzle: Exclusion 5) |  |  |  | 1250 nM | 1340 nM |  |
| AAGAAACAUGAGGAUCACCCAUGUGAGGAUAUGAGCAAGAAAAGAAAAGAAAGAAGAUUCAGAAGGCACAAAGG [salish99-ex1_r3_059] (puzzle: Exclusion 1) | 61.6 nM | 39.4 nM | 59.3 nM |  |  |  |
| AGUACUAACACGAAAGUGUUAGUACAAUAAGCUUGUGAAACAUGAGGAUCACCCAUGUCCUCAUGAGCUCGUCUUAU [salish99_TOv2_r3_051] (puzzle: Sensor v3, turn-off variant 2) | 77.8 nM | 5.95 nM | 67.9 nM |  |  |  |
| GAUCAUGCAGGAUAUACAUGGAACAUGUAAACAUGAAUUUCACAUGAGGAUCACCCAUGUAGAAGGGCAUGAUC [Omei Ex2 A13] (Eterna round: R97, puzzle: Exclusion 2) |  |  |  | 314 nM | 2200 nM |  |
| UGAAGUAGAGGAUAUACGUGGAAAUAGAUUCAUGUAAAACUACAUGAGGAUCACCCAUGUAGAAGGCUAUAGAU [JR_Ex2_Sub072] (Eterna round: R97, puzzle: Exclusion 2) |  |  |  | 28.4 nM | 49 nM |  |
| AGUUGUUGCGCAGGAUAUGAGGAUCACCCAUAGAAGGAUAUCGAAAGAGAAGGUCUGAGGAUUACCCAGAAGGGCGUGAUGACA [pwkr exNG2 2xF5 2xFMN.8] (Eterna round: R96, puzzle: Exclusion NG 2) |  |  |  | 905 nM | 184 nM | 130 nM |
| GGGCUAGAAGGAGGAUAUUGAAGAUCCUCACGACAUGAGGAUCACCCAUGUGGUUUAGCAAGGGCCAAGAAGGCCUAUAGCCCA [Zasoan] (Eterna round: R96, puzzle: Exclusion NG 2) |  |  |  | 111 nM | 77.3 nM | 52.1 nM |
| UUUAAUUUUUUUUUUUUACAAGCUUUUUGCUCGUCUUAUACAUGAGGAUCACCCAUGUAAGUGGAGGGUAAAUUAUC [JMF 87] (puzzle: Sensor v3, turn-off variant 2) | 19.4 nM | 39.4 nM | 15.2 nM |  |  |  |
| AUAAUAAUAUAGGAUAUCGAAUUAAUUAUUUAACGAGAAGGAUGAACAUGAGGAUCACCCAUGUGGUAUCAUGG [Mat - Exclusion 6 - JL Mod - D34] (puzzle: Exclusion 6) | 255 nM | 244 nM | 317 nM |  |  |  |
| GAUGCACAUGAGGAUCACCCAUGUGAGGAUAUCAUUCCUAGAUCAGUCGGUCAGGAAAUGAGAAGGCGCCGGGA [Eternabot (L2) Solution 5] (Eterna round: R97, puzzle: Exclusion 1) |  |  |  | 28.6 nM | 23.6 nM |  |
| UCCUCACAUGAGGAUCACCCAUGUUAGGAUAUUUAAUAGCGCGAAAGACAGUUCUGUAAGAGAAGGAACUGGGC [Edarti] (Eterna round: R97, puzzle: Exclusion 1) |  |  |  | 14.6 nM | 15 nM |  |
| AAUGAUUGACGAGGAUAUUGUGGUGAAACACGACGAGAAGGCGUAUGUCACAUGAGGAUCACCCAUGUGAGCUUUGUGGAUAUA [Ex NG1 #68] (Eterna round: R96, puzzle: Exclusion NG 1) |  |  |  | 34.7 nM | 34.1 nM | 24.1 nM |
| AAACAAGAAGGAUAUACAUUAUCGGAUCUUCCGGCAAUGCCACAUGAGGAUCACCCAUGUAGAAGGUCUAAAUU [Ralabi] (puzzle: Exclusion 2) |  | 12.3 nM |  |  |  |  |
| CUGUGUAGACAGGAUAUGCUGUACAAAAGUACAGCAGAAGGGUCUACAUGAGGAUCACCCAUGUGUACCUCAUG [)mei Ex6 B26] (Eterna round: R97, puzzle: Exclusion 6) |  |  |  | 21.2 nM | 106 nM |  |
| CAUAGUCUAGGAUAUUCACCUCUAUACAUGAGGAUCACCCAUGUCAAUGGCAGAUGACCAGAAGAAGGAGAAGUGG [Eternabot (L1) Solution 16] (Eterna round: R97, puzzle: Exclusion 5) |  |  |  | 90.2 nM | 84.8 nM |  |
| GCUGGUCGAGGAUAUGCAUUCGUGCUUCGGCACGUAAGGUCACAUGAGGAUCACCCAUGUAGAAGGUGACCAGC [E2/6-B1] (Eterna round: R97, puzzle: Exclusion 2) |  |  |  | 23.9 nM | 17.8 nM |  |

From the supplement of paper PMC9170038
